Laboratory results reported in article PMC3425481, “Differential Regulation of Smad3 and of the Type II Transforming Growth Factor-β Receptor in Mitosis: Implications for Signaling” (PLoS ONE, 2012).

Target: T1, Smad3 phosphorylated at the C-terminus (pSmad3C) (human (endogenous in ES-2), UniProt P84022 1-425, phospho-serines 423/425 (C-terminal SSXS motif))
T1 construct: Smad3, endogenous in human ES-2 ovarian cancer cells, precipitated with α-pSmad3C (raised against phospho-serines 423/425 of Smad3); The α-pSmad3C antibody cross-reacts with C-terminus phosphorylated Smad2; In 2ME2-arrested cells Smad3 is also phosphorylated on threonine 179, but pSmad3(179) was detected inconsistently in the immunoprecipitates; also called C-terminally phosphorylated Smad3; …
Experiment: co-IP; immunoprecipitation with α-pSmad3C (overnight, 4°C) and protein A-sepharose from lysates of 10^8 ES-2 cells treated with TGF-β1 (1 h) or 2ME2 (16 h); 420 mM NaCl, 50 mM Hepes pH 7.8, 5 mM EDTA, 1% NP-40, 3% DTT; blots with α-Ski, α-Smurf2, α-tSmad2/3; control: sepharose beads alone
Details: partners not purified

T1 sequence (P84022 whole entry): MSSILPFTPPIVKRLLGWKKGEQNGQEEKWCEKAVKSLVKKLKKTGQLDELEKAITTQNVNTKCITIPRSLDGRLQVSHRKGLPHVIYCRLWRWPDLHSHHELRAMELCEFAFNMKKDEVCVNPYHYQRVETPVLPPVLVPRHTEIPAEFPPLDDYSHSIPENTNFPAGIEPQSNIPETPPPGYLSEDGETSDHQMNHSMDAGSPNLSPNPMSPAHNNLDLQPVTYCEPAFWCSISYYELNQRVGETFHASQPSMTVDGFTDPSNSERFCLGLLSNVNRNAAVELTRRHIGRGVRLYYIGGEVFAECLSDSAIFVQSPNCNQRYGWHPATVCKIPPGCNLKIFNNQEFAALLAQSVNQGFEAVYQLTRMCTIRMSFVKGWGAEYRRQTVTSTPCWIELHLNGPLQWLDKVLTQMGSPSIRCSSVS

B1: Ski (natural protein, human (endogenous in ES-2), UniProt P12755 1-728, looked up)
chain: MEAAAGGRGCFQPHPGLQKTLEQFHLSSMSSLGGPAAFSARWAQEAYKKESAKEAGAAAVPAPVPAATEPPPVLHLPAIQPPPPVLPGPFFMPSDRSTERCETVLEGETISCFVVGGEKRLCLPQILNSVLRDFSLQQINAVCDELHIYCSRCTADQLEILKVMGILPFSAPSCGLITKTDAERLCNALLYGGAYPPPCKKELAASLALGLELSERSVRVYHECFGKCKGLLVPELYSSPSAACIQCLDCRLMYPPHKFVVHSHKALENRTCHWGFDSANWRAYILLSQDYTGKEEQARLGRCLDDVKEKFDYGNKYKRRVPRVSSEPPASIRPKTDDTSSQSPAPSEKDKPSSWLRTLAGSSNKSLGCVHPRQRLSAFRPWSPAVSASEKELSPHLPALIRDSFYSYKSFETAVAPNVALAPPAQQKVVSSPPCAAAVSRAPEPLATCTQPRKRKLTVDTPGAPETLAPVAAPEEDKDSEAEVEVESREEFTSSLSSLSSPSFTSSSSAKDLGSPGARALPSAVPDAAAPADAPSGLEAELEHLRQALEGGLDTKEAKEKFLHEVVKMRVKQEEKLSAALQAKRSLHQELEFLRVAKKEKLREATEAKRNLRKEIERLRAENEKKMKEANESRLRLKRELEQARQARVCDKGCEAGRLRAKYSAQIEDLQVKLQHAEADREQLRADLLREREAREHLEKVVKELQEQLWPRARPEAAGSEGAAELEP
notes: Ski, endogenous in human ES-2 ovarian cancer cells, detected with α-Ski (Santa Cruz); source: endogenous, ES-2 cell lysate
fold increase of the Ski/tSmad3 ratio in the anti-pSmad3C immunoprecipitate, 2ME2-arrested cells relative to TGF-β1-activated cells: 7.7 ± 1.7 fold
